In patent US20080182978A1, “ANTI-NGF ANTIBODIES AND METHODS USING SAME” (RINAT NEUROSCIENCE CORP, priority 2002, published 2008):

B1: E3: humanized, affinity matured anti-NGF antagonist antibody; variable regions SEQ ID NO:1 and 2; human IgG2a (A330P331 to S330S331), kappa (antibody, V domains shown)
VH: QVQLQESGPGLVKPSETLSLTCTVSGFSLIGYDLNWIRQPPGKGLEWIGIIWGDGTTDYNSAVKSRVTISKDTSKNQFSLKLSSVTAADTAVYYCARGGYWYATSYYFDYWGQGTLVTVS
VL: DIQMTQSPSSLSASVGDRVTITCRASQSISNNLNWYQQKPGKAPKLLIYYTSRFHSGVPSRFSGSGSGTDFTFTISSLQPEDIATYYCQQEHTLPYTFGQGTKLEIKRT
modifications: human IgG2a constant (A330S/P331S) and kappa constant missing

What was measured:
[1] = tested on: complete Freund's adjuvant (CFA)-induced chronic arthritis; assay: CFA arthritis rats, arthritis index (inflammation score); format: in vivo, rat; conditions: for change of arthritis index compared to vehicle-treated arthritic group: E3 1 mg/kg or 911 10 mg/kg i.v. D14+D19, indomethacin 3 mg/kg/day p.o.; for arthritis index (score): arthritic rats
Procedure: Five groups of 10 animals (5-weeks old male Lewis rats-LEWIS Lew/Ico, from Charles River Laboratories—Belgium) each were included in this study: Group 1: non arthritic rats/saline (vehicle), i.v. bolus, n=10; Group 2: arthritic rats/saline (vehicle), i.v. bolus, n=10; Group 3: arthritic rats/Indomethacin 3 mg/kg, p.o daily over 10 days, n=10; […]; Group 5: arthritic rats/911, 10 mg/kg, i.v. bolus, n=10. The doses were expressed in terms of free active substance (mg/kg). E3 and 911 were extemporaneously prepared in saline from the stock solution to the desired concentration. […]. All diluted solutions (before i.v. injection) were sterilized using a sterile filter unit of 0.20.μm. pH and osmolarity values of diluted solutions were measured before each i.v. injection. Before the first i.v., osmolarity (mosm/L) for saline, E3, and 911 were 278, 269, and 308 respectively; pH for saline, E3, and 911 were 5.93, 6.76, 6.71 respectively. Before the second i.v., osmolarity (mosm/L) for saline, E3, and 911 were 280, 270, and 309 respectively; pH for saline, E3, and 911 were 5.86, 6.72, and 6.59 respectively.
E3 or 911 or saline were administered by i.v. bolus injection on Day 14 and Day 19 after arthritis induction in a coded and random order with a volume of 5 mL/kg. The non arthritic group was given by i.v. bolus injection of saline on Day 14 and Day 19 with a volume of 5 mL/kg. Indomethacin was extemporaneously prepared in 1% methylcellulose. Indomethacin was administered by oral route (p.o.) once daily over 10 days from Day 14 to Day 23 after arthritis induction in a coded and random order with a volume of 10 mL/kg.
Arthritis index was evaluated using an inflammation score for each hind and forepaw (arthritic rats): Score 0: normal aspect; Score 1: erythema; Score 2: erythema with slight edema; Score 3: strong inflammation without ankylosis; Score 4: ankylosis. This evaluation was performed at the following times (after induction of arthritis): Day 14 (before i.v. bolus or p.o. administration); and Day 24 (5 days after the last i.v. bolus injection or 24 h after the last p.o. administration). All measurements were performed between 2:00 and 3:00 pm (D 14), 8:00 and 9:00 am (D 24). All the data were collected and stored by the WinDas software.
All results were reported as Mean ±S.E.M. of 10 rats in each group at each time point. Paw volume was expressed in ml calculated from the mean value of the right and left paw volume. Arthritis index was calculated from the sum of the score obtained for each of the 4 paws. The nociceptive response was evaluated by the intensity of the level of vocalization recorded for each animal (mean of 4 values: 2 times/paw) in mV. The percentage inhibition of the nociceptive response was calculated from the mean value of the vehicle-treated arthritic group [(mean value of vehicle-treated arthritic group−mean value of treated arthritic group/mean value of vehicle-treated arthritic group)*100]. Body weight was expressed in grams. Hindpaws (left and right) weight was expressed in grams. Cytokine levels (IL-6, IL-1β, TNF-α and TGF-β1) of each hind paw was expressed in pg/ml. Circulating levels of TGF-β1 was expressed in pg/ml. Radiological index for each parameter (demineralization, erosions, periostal reaction, soft tissue damage, space joint, osteogenesis deformity) and total radiological index (total score) were calculated from the sum of the scores obtained for each parameter. The inter-group significances of the deviations between the values of vehicle-treated group (arthritic rats) and vehicle-treated group (non arthritic rats) were assessed by the Student t test or Mann-Whitney Rank Sum Test when equal variance or normality test failed. The inter-group significances of the deviations between the values of vehicle-treated group (arthritic rats) and E3- and 911- and Indomethacin-treated groups were assessed by the 1-way analysis of variance ANOVA followed by the non-paired Dunnett t test. […]

[2] = tested on: complete Freund's adjuvant (CFA)-induced chronic arthritis; assay: CFA arthritis rats, X-ray analysis of hindpaws (radiological index); format: in vivo, rat; conditions: for X-ray score: Deformity / X-ray score: Demineralization / X-ray score: Erosions / X-ray score: Periostal reaction / X-ray score: Soft tissue damage / X-ray score: Space joint / X-ray score: osteogenesis: score 0-4
Procedure: On Day 24, after blood collecting the animals were sacrificed and X-ray radiographies (hindpaws) were obtained for assessment of joint lesions. X-ray analysis was focused on articular erosions, articular space, periosteum abnormalities on both hindpaws. All the radiographies were analyzed by looking at seven different items: the soft tissue damage, deformity, demineralization, joint space, erosions, osteogenesis and periostal reaction. For each animal, the first six items were analyzed independently by looking at the worse hind foot. The periostal reaction was analyzed by looking at the tail. For each item, the score goes from 0 (normal) to 4 (maximal damage). Therefore the total score goes from 0 to 28. The radiographic interpretation was done by the same reader without knowing anything about the animals (treated or not treated).
All results were reported as Mean ±S.E.M. of 10 rats in each group at each time point. Paw volume was expressed in ml calculated from the mean value of the right and left paw volume. Arthritis index was calculated from the sum of the score obtained for each of the 4 paws. The nociceptive response was evaluated by the intensity of the level of vocalization recorded for each animal (mean of 4 values: 2 times/paw) in mV. The percentage inhibition of the nociceptive response was calculated from the mean value of the vehicle-treated arthritic group [(mean value of vehicle-treated arthritic group−mean value of treated arthritic group/mean value of vehicle-treated arthritic group)*100]. Body weight was expressed in grams. Hindpaws (left and right) weight was expressed in grams. Cytokine levels (IL-6, IL-1β, TNF-α and TGF-β1) of each hind paw was expressed in pg/ml. Circulating levels of TGF-β1 was expressed in pg/ml. Radiological index for each parameter (demineralization, erosions, periostal reaction, soft tissue damage, space joint, osteogenesis deformity) and total radiological index (total score) were calculated from the sum of the scores obtained for each parameter. The inter-group significances of the deviations between the values of vehicle-treated group (arthritic rats) and vehicle-treated group (non arthritic rats) were assessed by the Student t test or Mann-Whitney Rank Sum Test when equal variance or normality test failed. The inter-group significances of the deviations between the values of vehicle-treated group (arthritic rats) and E3- and 911- and Indomethacin-treated groups were assessed by the 1-way analysis of variance ANOVA followed by the non-paired Dunnett t test. A probability of P<0.05 was considered as significant. All statistical analysis was performed by the Sigmastat™ software.

[3] = arthritic rats, E3 1 mg/kg or 911 10 mg/kg i.v. D14+D19, indomethacin 3 mg/kg p.o., D24

| Molecule | change of arthritis index compared to vehicle-treated arthritic group ([1]; D24) | arthritis index (score) ([1]; D14 (before dosing)) | decrease of X-ray total score in comparison to vehicle-treated arthritic rats ([2]; indomethacin 3 mg/kg/day p.o. 10 days) | X-ray score: Deformity [2, 3] | X-ray score: Demineralization [2, 3] | X-ray score: Erosions [2, 3] | X-ray score: Periostal reaction [2, 3] | X-ray score: Soft tissue damage [2, 3] | X-ray score: Space joint [2, 3] | X-ray score: osteogenesis [2, 3] | anti-inflammatory effects in arthritis model (conclusion) ([1]; E3 1 mg/kg i.v., 911 10 mg/kg i.v., D14+D19) | arthritis index (score) ([1]; E3 1 mg/kg or 911 10 mg/kg i.v. D14+D19, indomethacin 3 mg/kg/day p.o. 10 days, D24) | X-ray TOTAL score ([2]; score 0-28, arthritic rats, E3 1 mg/kg or 911 10 mg/kg i.v. D14+D19, indomethacin 3 mg/kg p.o., D24) |
| --- | --- | --- | --- | --- | --- | --- | --- | --- | --- | --- | --- | --- | --- |
| COc1ccc2c(c1)c(CC(=O)O)c(C)n2C(=O)c1ccc(Cl)cc1 [Indomethacin, reference compound] | about −8.0 | 8.7±0.6 | about 10.7 | 0.4 ± 0.2 | 0.3 ± 0.2 | 0.9 ± 0.2 | 0.7 ± 0.3 | 1.0 ± 0.2 | 1.0 ± 0.2 | 0.1 ± 0.1 | – | – | – |
| B1 | did not affect the arthritis index | 10.2±0.4 | – | 1.8 ± 0.2 | 2.0 ± 0.2 | 2.4 ± 0.3 | 0.8 ± 0.2 | 3.3 ± 0.3 | 2.7 ± 0.2 | 1.2 ± 0.2 | did not show significant anti-inflammatory effects | 11.4±0.4 | 14.2±1.3 |
